Reference: the DeepSol protein solubility set

test: soluble on expression in E. coli; label from the status in PepcDB or PDB records

Row | Sequence | soluble on expression in E. coli
1 | GPGSMARITVELLRRRAEHNEGCLSNLKEIALHQQDIEKIDLIGDACRQLEIIYLCNNYISRIEGLRHLKWLKYLNLAVNNITVIDGLQGCEALERLDLTLNFIAEPTSVQTLLANPFLESLHLTGNPCTKTEGYRAYVIHSLPQLKELDGDEIIRAERITARQAEDVVIEVAEEEAVRVREAERIKQEMLAKGIDPFPPKYNDKGERVYGHTPEERLQILHEQQEMERKKREEQSTPQPGSIAALHQELKRQQQPSQRLTAEEERSKFGRLLLRNEPRVPFHMNQDDAAEFVLTVDPGKFISTTLLSVQVEVDVVRVFIKGKLLQVPVEDELAADAAQVQRSTTTGQLKVMVPYAPEVQERRGGARARLRGLREVTEKASSATGTSAASTTPPPTASPPKVAEPPTRSTLLEIEGRMRGSSSPSLSINQPGTTGTLSSSGKNTTTASSGIVKSVKDISPVPSTMKVSADAATLASQSMTAVLTPTTAASSH | soluble
2 | MEITDPGDFRQRIETSFARQGVVQAINAEISRIEHRLVEIELPFHEKLTQQHGILHAGVIAAGLDTACTYAAYTIIEPEASLLTIEFKVNLMSPGRGERFLFRGEIIKPGNNLIVADGRAYALSDGPAKLIASMTGTMMVVKGREDITGLEHHHHHH | soluble
3 | MSQTPPPKDGKNPEAMEVEDAIDEEILKMSTEDLKSRTHLLDNEIRIMRSEVQRINHSATTLKERIKENTERIKVNKTLPYLVSNVVELLDLEDNTEEEGANVDLDAQKTKCAVIKTSTRATYFLPVVGLVDPDELKPGDLVGVNKDSYLILEKLPAEYDSRVKAMEVDERPTEQYSDIGGCDKQIQELIEAVVLPMTHKDRFVNLGIHPPKGVLMYGPPGTGKTMMARAVAAQTKSTFLKLAGPQLVQMFIGDGAKLVRDAFALAKEKAPAIIFIDELDAIGTKRFDSEKAGDREVQRTMLELLNQLDGFQPNDDIKVIAATNRIDVLDPALLRSGRLDRKIELPHPNEDARARIMQIHSRKMNVNKDVNFEELARCTDDFNGAQCKAVCVEAGMIALRRDATEILHEDFMDAILEVQAKKKASLNYYA | not soluble
4 | MGSDKIHHHHHHMGPINFEKAKKEREQAVIARLIDIRKAQQEYRSLHHGMYTEHFDTLIDFVKNQKLPFVMKVGQLTDDQLESGLTEKKAMAIINKAKKTGKYDEVKKNGLENFKRDTMWVAVMDTIYPKGFNADSMKYIPYGNGAIFEMNVKNDTAKSGAPVYLFEVKAPYETYLGGLDRQEIINLKDLNEKLGRYSGLMVGSIDNPNNGAGNWE | not soluble
5 | MGSDKIHHHHHHMANEATQELFQVLDNTAIILQNELEISYLEAVYETGENLFQKEVLQKEELSSEKQLKLQASYESIELENFSNEEIRKGLQLALLKGMKHGIQVNHQMTPDSIGFIVAYLLEKVIQKKKNVSILDPACGTANLLTTVINQLELKGDVDVHASGVDVDDLLISLALVGADLQRQKMTLLHQDGLANLLVDPVDVVISDLPVGYYPDDENAKTFELCREEGHSFAHFLFIEQGMRYTKPGGYLFFLVPDAMFGTSDFAKVDKFIKKNGHIEGIIKLPETLFKSEQARKSILILEKADVDVKPPKEVLLANLSSLTDPSVTAPILAEIENWFKSKQ | soluble
6 | MARLSDLIEAFIKQLIDDTDGTIEIQRNELASQFNCVPSQINYVIDTRFTTERGYYVESRRGGGGYIKITRVSIGHEGKNYLMHIINSMGDSISQQSAHVFINNFVDHNVVTEKEAMLLKAATSDKALAAVPVESRGQIRASILKNMLVCLLV | soluble
7 | MIKAIIFDVDETLVYYEGYSLREWYEKVGLPAMKELGVIVDWEIFRKMARGELPRSYVEKFQINHVKFWKALDEANRKYREELLKEGKVHTFKDVEALKEIKNLGIKLAAVSNASQDNTELVLRAFDLLKYFDVVYGKDYTYLDGVKPNPYLINKALKALNVEPKEAILVGDSELDIIAGKRAKLRVVQIVREKRVEGADVYINSLWELVDKLKTGEL | soluble
8 | PISNIFAGLLFYVLSDYVTEDTGIRITRAELEKTIVEHGGKLIYNVILKRHSIGDVRLISCKTTTECKALIDRGYDILHPNWVLDCIAYKRLILIEPNYCFNVSQKMRAVAEKRVDCLGDSFENDISETKLSSLYKSQLSLPPMGELEIDSEVRRFPLFLFSNRIAYVPRRKISTEDDIIEMKIKLFGGKITDQQSLCNLIIIPYTDPILRKDCMNEVHEKIKEQIKASDTIPKIARVVAPEWVDHSINENCQVPEEDFPVVNY | soluble
